Where no end group is shown, it is not given here. The star is where a group is joined. AMCA = 7-amino-4-methyl-coumarin-3-acetic acid, Cc1c(CC(=O)*)c(=O)oc2cc(N)ccc12
Molecular target: HLA-DR1 (human (endogenous in WT-100))
Assay: SEC

binding capacity relative to IM(18-29): 3 fold
B1: AMCA-SP3(1-16), synthetic self-peptide SP3 labelled at the NH2 terminus (peptide)
peptide: {AMCA}-AILEFRAMAQFSRKTD

Reference: PMC2119237
